This is an account of results in the supplement of paper PMC9112550, “Optimization of the antimicrobial peptide Bac7 by deep mutational scanning” (BMC Biology, 2022).

The data set has as its system Escherichia coli TOP10. As to the kind of experiment: shrunken log2 fold change of peptide-encoding DNA abundance (4.5 h post-induction vs induction); higher = less antimicrobial activity (less host growth inhibition). Conditions: time post-induction: 4.5 h; library: site-saturation at positions 5, 18, 19, 20.
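Also: peptides expressed intracellularly from a pBAD plasmid library in pooled LB shake-flask culture, induced with 0.3% L-arabinose, DNA abundance read by NGS, three biological replicates, DESeq2 with apeglm shrinkage.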

RRIRDRPPRLPRPRPRPKFEPRP: the “shrunken log2 fold change” value was -0.0187. RRIRRRPPRLPRPRPRPNHMPRP: the “shrunken log2 fold change” value was -0.299. Next, RRIRERPPRLPRPRPRPNLIPRP: -0.421; RRIRVRPPRLPRPRPRPAKSPRP: -0.112.

Consider RRIRQRPPRLPRPRPRPTEYPRP, for which the “shrunken log2 fold change” value was -0.401. As to RRIRSRPPRLPRPRPRPSVAPRP, the “shrunken log2 fold change” value was 0.575.

With RRIRHRPPRLPRPRPRPPGPPRP, the “shrunken log2 fold change” value worked out at 0.196.

Take RRIRVRPPRLPRPRPRPMVRPRP: the “shrunken log2 fold change” value was determined as 0.00709. In the case of RRIRGRPPRLPRPRPRPFKIPRP, the “shrunken log2 fold change” value was found to be 0.0381.

RRIRQRPPRLPRPRPRPCWPPRP: the “shrunken log2 fold change” value turned out to be 0.193. The figure for RRIRQRPPRLPRPRPRPLASPRP is 0.00224. Next, RRIRERPPRLPRPRPRPPACPRP: 0.0779; RRIRYRPPRLPRPRPRPSLEPRP: -0.0996; RRIRTRPPRLPRPRPRPCWNPRP: 0.00718. On to RRIRGRPPRLPRPRPRPDRKPRP, for which the “shrunken log2 fold change” value amounted to 0.051.

Turning to RRIRQRPPRLPRPRPRPQVEPRP, the “shrunken log2 fold change” value was -0.0173. In the case of RRIRQRPPRLPRPRPRPPIGPRP, the “shrunken log2 fold change” value was 2.89. Next, RRIRERPPRLPRPRPRPFPMPRP: -0.423; RRIRFRPPRLPRPRPRPELGPRP: 0.144; RRIRIRPPRLPRPRPRPWCGPRP: -0.454.

Regarding RRIRYRPPRLPRPRPRPMIDPRP, the “shrunken log2 fold change” value was -0.00999. As to RRIRWRPPRLPRPRPRPSRSPRP, the “shrunken log2 fold change” value is 0.0592.

For the sequence RRIRERPPRLPRPRPRPVSWPRP, the “shrunken log2 fold change” value was found to be 0.368. For the sequence RRIRQRPPRLPRPRPRPLITPRP, the “shrunken log2 fold change” value is -0.281. Take RRIRQRPPRLPRPRPRPLCSPRP: the “shrunken log2 fold change” value is -0.0385. The figure for RRIRERPPRLPRPRPRPLPHPRP is -0.438; for RRIRVRPPRLPRPRPRPWWQPRP it is -0.201. Next, RRIRERPPRLPRPRPRPDPCPRP: -0.119; RRIRCRPPRLPRPRPRPGRPPRP: 0.106. The figure for RRIRERPPRLPRPRPRPPFAPRP is 0.403; for RRIRYRPPRLPRPRPRPQLYPRP it is -0.206; for RRIRERPPRLPRPRPRPVHMPRP it is -0.0419. As for RRIRERPPRLPRPRPRPVAEPRP, the “shrunken log2 fold change” value was determined as 0.0949. The figure for RRIRHRPPRLPRPRPRPSVEPRP is -0.2; for RRIRHRPPRLPRPRPRPSKCPRP it is -1.04. The figure for RRIRQRPPRLPRPRPRPHQPPRP is 0.00524; for RRIRVRPPRLPRPRPRPKHPPRP it is 0.28; for RRIRQRPPRLPRPRPRPEFWPRP it is 0.238. Next, RRIRWRPPRLPRPRPRPWCMPRP: -0.0174. As for RRIRCRPPRLPRPRPRPEMFPRP, the “shrunken log2 fold change” value was determined as 0.00455. Consider RRIRPRPPRLPRPRPRPEGGPRP, for which the “shrunken log2 fold change” value is 0.329.

Take RRIRHRPPRLPRPRPRPIYWPRP: the “shrunken log2 fold change” value is -0.181. Regarding RRIRARPPRLPRPRPRPAECPRP, the “shrunken log2 fold change” value was found to be 0.041. Take RRIRPRPPRLPRPRPRPPMKPRP: the “shrunken log2 fold change” value was determined as 0.0802. As to RRIRCRPPRLPRPRPRPPLYPRP, the “shrunken log2 fold change” value turned out to be 0.429. As to RRIRQRPPRLPRPRPRPTHNPRP, the “shrunken log2 fold change” value worked out at 0.357.

Consider RRIRDRPPRLPRPRPRPGYCPRP, for which the “shrunken log2 fold change” value was -0.658. The figure for RRIRNRPPRLPRPRPRPGKQPRP is -0.406; for RRIRRRPPRLPRPRPRPVGFPRP it is 0.362. Turning to RRIRYRPPRLPRPRPRPFPWPRP, the “shrunken log2 fold change” value was -0.18. Next, RRIRNRPPRLPRPRPRPFCRPRP: -0.223. Next, RRIRMRPPRLPRPRPRPYEAPRP: 0.029; RRIRCRPPRLPRPRPRPITCPRP: -0.159. On to RRIRLRPPRLPRPRPRPYMVPRP, for which the “shrunken log2 fold change” value is -0.288.

Consider RRIRKRPPRLPRPRPRPPMTPRP, for which the “shrunken log2 fold change” value was -0.00191. As to RRIRWRPPRLPRPRPRPHHRPRP, the “shrunken log2 fold change” value was -0.214. Next, RRIRNRPPRLPRPRPRPKVSPRP: 0.264; RRIRHRPPRLPRPRPRPAQWPRP: 0.112. The figure for RRIRWRPPRLPRPRPRPSCEPRP is 0.19; for RRIRKRPPRLPRPRPRPGYIPRP it is 0.0313. RRIRQRPPRLPRPRPRPMTCPRP: the “shrunken log2 fold change” value is 0.0215. Next, RRIRSRPPRLPRPRPRPMKFPRP: -0.0589. The figure for RRIRYRPPRLPRPRPRPLQEPRP is -0.218; for RRIRCRPPRLPRPRPRPSCPPRP it is -0.407; for RRIRFRPPRLPRPRPRPNPSPRP it is -0.125. For RRIRYRPPRLPRPRPRPQFMPRP, the “shrunken log2 fold change” value is -0.074. The figure for RRIRFRPPRLPRPRPRPSRNPRP is -0.346. Take RRIRYRPPRLPRPRPRPPRGPRP: the “shrunken log2 fold change” value was 0.284. The figure for RRIRGRPPRLPRPRPRPVIQPRP is 0.0682; for RRIRDRPPRLPRPRPRPECMPRP it is 1.07; for RRIRMRPPRLPRPRPRPMTDPRP it is 0.0744. The figure for RRIRKRPPRLPRPRPRPFTNPRP is -0.0844; for RRIRIRPPRLPRPRPRPVSKPRP it is -0.0544; for RRIRDRPPRLPRPRPRPIDCPRP it is 0.0306. The figure for RRIRKRPPRLPRPRPRPFLAPRP is 0.169. In the case of RRIRERPPRLPRPRPRPTQYPRP, the “shrunken log2 fold change” value was -0.304. As for RRIRCRPPRLPRPRPRPVSPPRP, the “shrunken log2 fold change” value came to 0.198. RRIRLRPPRLPRPRPRPVKGPRP: the “shrunken log2 fold change” value was -0.00152.

RRIRWRPPRLPRPRPRPVLRPRP: the “shrunken log2 fold change” value was found to be 0.106.

On to RRIRQRPPRLPRPRPRPCKEPRP, for which the “shrunken log2 fold change” value came to 0.00843.

For RRIRERPPRLPRPRPRPFQGPRP, the “shrunken log2 fold change” value turned out to be 0.0891. For RRIRSRPPRLPRPRPRPKIEPRP, the “shrunken log2 fold change” value was -0.0199. The figure for RRIRCRPPRLPRPRPRPNHAPRP is -0.00846; for RRIRPRPPRLPRPRPRPEPPPRP it is 0.474; for RRIRIRPPRLPRPRPRPVNWPRP it is -0.229. The figure for RRIRWRPPRLPRPRPRPYYLPRP is -0.843; for RRIRKRPPRLPRPRPRPANFPRP it is -0.0479.

In the case of RRIRIRPPRLPRPRPRPVPNPRP, the “shrunken log2 fold change” value was -0.00284. Take RRIRERPPRLPRPRPRPMVEPRP: the “shrunken log2 fold change” value was -0.0932. For RRIRQRPPRLPRPRPRPKSHPRP, the “shrunken log2 fold change” value is -0.0261. As to RRIRVRPPRLPRPRPRPWAQPRP, the “shrunken log2 fold change” value was -0.365.

In the case of RRIRGRPPRLPRPRPRPDKCPRP, the “shrunken log2 fold change” value was 0.627. The figure for RRIRTRPPRLPRPRPRPPIWPRP is 0.477; for RRIRTRPPRLPRPRPRPMYQPRP it is -0.416.

On to RRIRARPPRLPRPRPRPMPEPRP, for which the “shrunken log2 fold change” value was 0.18. The figure for RRIRKRPPRLPRPRPRPSFAPRP is 0.337. As for RRIRLRPPRLPRPRPRPQEAPRP, the “shrunken log2 fold change” value came to 0.0514.

Turning to RRIRVRPPRLPRPRPRPNRKPRP, the “shrunken log2 fold change” value was -0.0231. The figure for RRIRCRPPRLPRPRPRPFARPRP is 0.0264; for RRIRERPPRLPRPRPRPANRPRP it is 0.111. On to RRIRYRPPRLPRPRPRPRSDPRP, for which the “shrunken log2 fold change” value is -0.113. For RRIRNRPPRLPRPRPRPCMTPRP, the “shrunken log2 fold change” value was found to be 0.0616. Next, RRIRCRPPRLPRPRPRPYFTPRP: -0.774; RRIRVRPPRLPRPRPRPNFSPRP: -0.153; RRIRFRPPRLPRPRPRPGVTPRP: 0.0815. As to RRIRRRPPRLPRPRPRPTGHPRP, the “shrunken log2 fold change” value was found to be 0.236. The figure for RRIRKRPPRLPRPRPRPVSFPRP is -0.0599; for RRIRARPPRLPRPRPRPTAAPRP it is 1.05. The figure for RRIRHRPPRLPRPRPRPRIDPRP is -0.511. The figure for RRIRLRPPRLPRPRPRPEWPPRP is 0.549.

Consider RRIRTRPPRLPRPRPRPGYAPRP, for which the “shrunken log2 fold change” value was 0.111.

Turning to RRIRWRPPRLPRPRPRPRTHPRP, the “shrunken log2 fold change” value was 0.0534.

Regarding RRIRSRPPRLPRPRPRPNGNPRP, the “shrunken log2 fold change” value was -0.384. On to RRIRGRPPRLPRPRPRPIENPRP, for which the “shrunken log2 fold change” value was 0.745. The figure for RRIRLRPPRLPRPRPRPIRFPRP is -0.185. The figure for RRIRIRPPRLPRPRPRPCFQPRP is -0.391; for RRIRKRPPRLPRPRPRPYNEPRP it is -0.254. On to RRIRHRPPRLPRPRPRPISSPRP, for which the “shrunken log2 fold change” value is -0.202. The figure for RRIRQRPPRLPRPRPRPSIYPRP is -0.988; for RRIRHRPPRLPRPRPRPWVQPRP it is 0.0187. On to RRIRFRPPRLPRPRPRPGPAPRP, for which the “shrunken log2 fold change” value is 0.544. Regarding RRIRPRPPRLPRPRPRPSLVPRP, the “shrunken log2 fold change” value is -0.222. Take RRIRPRPPRLPRPRPRPFTKPRP: the “shrunken log2 fold change” value was -0.148. Regarding RRIRNRPPRLPRPRPRPRHSPRP, the “shrunken log2 fold change” value is -0.424.

In the case of RRIRARPPRLPRPRPRPYGSPRP, the “shrunken log2 fold change” value is -0.0423.
